Assay results reported in patent US20190330277A1.
Several values for one entry are separate records, joined by “and”; a condition that tells them apart may be missing. Equal entries are not always repeated.

Tests used:
[1] = target: bRSV RB94 DSCav1 (bovine respiratory syncytial virus, strain RB94) (UniProt P23728)
[2] = target: bRSV RB94 DSCav1 (bovine respiratory syncytial virus, strain RB94) (UniProt P23728); experiment: biolayer interferometry Octet binding analysis
[3] = target: 391-2 sc9 DS-Cav1 98C-362C; experiment: ELISA, variant from culture supernatant on Ni-NTA plate
[4] = target: 391-2-DS-Cav1-BZGJ9 Long S190V; experiment: as above
391-2-DS-Cav1-BZGJ9 Long = experiment: as above
391-2-DS-Cav1-BZGJ9_gyc5 = experiment: as above
[5] = target: 391-2-DS-Cav1-sc9 100C-362C; experiment: as above
[6] = target: 391-2-DS-Cav1-sc9deleteFS 100C-361C; experiment: as above
[7] = target: 391-2-DS-Cav1_ sc9_S398C-S485C; experiment: as above
391-2-DSCav1- F-SC_7R = experiment: as above
[8] = target: 391-2-site 0 hRSV DSCav1-BZGJ9 Long; experiment: as above
391-2wt_F-SC_12R core = experiment: as above
[9] = target: RB94 dscav1T369C-T455C Long S190V; experiment: as above
[10] = target: RB94 site 0 hRSV DS-Cav1 Long FdPL; experiment: as above
[11] = target: RB94 site 0 hRSV bovSurf DS-Cav1 Long FdPL; experiment: as above
[12] = target: sc9-10_DS-CAV1_bRSV(RB94)_Fd_fp2_ig1; experiment: as above
[13] = target: sc9-10_DS-CAV1_bRSV(RB94)_Fd_hp1_fp1_ig1; experiment: as above
[14] = target: sc9-10_DS-CAV1_bRSV(RB94)_Fd_hp2_fp1_ig1; experiment: as above
[15] = target: sc9-10_DS-CAV1_bRSV(RB94)_Fd_hp2_ig1; experiment: as above
[16] = target: sc9-10_DS-CAV1_bRSV(RB94)_Fd_pm1_fp1_ig1; experiment: as above
391-2-DS-Cav1- F-SC_11R = experiment: ELISA, variant from culture supernatant on Ni-NTA plate [continued]
[17] = target: 391-2-DS-Cav1-BZGJ9_gyc10; experiment: as above
391-2-DS-Cav1-BZGJ9_gyc2 = experiment: as above
391-2-DS-Cav1-BZGJ9_gyc3 = experiment: as above
391-2-DS-Cav1-BZGJ9_gyc4 = experiment: as above
391-2-DS-Cav1-BZGJ9_gyc6 = experiment: as above
[18] = target: 391-2-DS-Cav1-BZGJ9deleteFS; experiment: as above
391-2-DS-Cav1-BZGJ9 = experiment: as above
391-2-DS-Cav1-IP-2 = experiment: as above
391-2-DS-Cav1-IP-7 = experiment: as above
391-2-DS-Cav1-SC-IP-1 = experiment: as above
391-2_DS-Cav1-tzsc2 = experiment: as above
391-2_DS-Cav1-tzsc4 = experiment: as above
391-2_DS-Cav1-tzsc6 = experiment: as above
391-2_DS-Cav1-tzsc9 = experiment: as above
[19] = target: RB94 DS-CAV1 N70K S104F K117T; experiment: as above
[20] = target: RB94_sc9-10 DS-CAV1 L373R; experiment: as above
[21] = target: sc9-10_DS-CAV1_bRSV(RB94)_Fd_(hRSV-leader)_ig1; experiment: as above
[22] = target: sc9-10_DS-CAV1_bRSV(RB94)_Fd_fp1_ig1; experiment: as above

motavizumab (antibody)
ELISA binding value [1]: 0.371 | response level (biolayer interferometry) [2]: 0.5 nm | ELISA binding value [3]: 0.75 | ELISA binding value [4]: 1.31 | ELISA binding value (391-2-DS-Cav1-BZGJ9 Long): 1.55 | ELISA binding value (391-2-DS-Cav1-BZGJ9_gyc5): 2.04 | ELISA binding value [5]: 0.603 | ELISA binding value [6]: 0.477 | ELISA binding value [7]: 0.487 | ELISA binding value (391-2-DSCav1- F-SC_7R): 0.649 | ELISA binding value [8]: 2.08 | ELISA binding value (391-2wt_F-SC_12R core): 0.821 | ELISA binding value [9]: 0.511 | ELISA binding value [10]: 1.75 | ELISA binding value [11]: 1.86 | ELISA binding value [12]: 0.748 | ELISA binding value [13]: 2.22 | ELISA binding value [14]: 2.18 | ELISA binding value [15]: 2.52 | ELISA binding value [16]: 1.81 | ELISA binding value (391-2-DS-Cav1- F-SC_11R): 0.538 | ELISA binding value [17]: 0.461 | ELISA binding value (391-2-DS-Cav1-BZGJ9_gyc2): 1.58 | ELISA binding value (391-2-DS-Cav1-BZGJ9_gyc3): 0.599 | ELISA binding value (391-2-DS-Cav1-BZGJ9_gyc4): 0.486 | ELISA binding value (391-2-DS-Cav1-BZGJ9_gyc6): 1.05 | ELISA binding value [18]: 0.152 | ELISA binding value (391-2-DS-Cav1-BZGJ9): 0.5 | ELISA binding value (391-2-DS-Cav1-IP-2): 0.556 | ELISA binding value (391-2-DS-Cav1-IP-7): 0.546 | ELISA binding value (391-2-DS-Cav1-SC-IP-1): 1.1 | ELISA binding value (391-2_DS-Cav1-tzsc2): 0.366 | ELISA binding value (391-2_DS-Cav1-tzsc4): 0.639 and 0.505 | ELISA binding value (391-2_DS-Cav1-tzsc6): 0.527 | ELISA binding value (391-2_DS-Cav1-tzsc9): 1.59 | ELISA binding value [19]: 0.271 | ELISA binding value [20]: 0.689 | ELISA binding value [21]: 0.538 | ELISA binding value [22]: 0.545
